Target: GG-SpaA E269A mutant, residues 35-302 (Lactobacillus rhamnosus GG (ATCC 53103))
Assay: SEC; size-exclusion chromatography of purified E269A protein, Sephacryl S-200 26/60, 20 mM Tris pH 7.5, 150 mM NaCl, 1 mM EDTA; two forms recovered, trimeric (E1) and monomeric (E2)

## GG-SpaA E269A mutant, residues 35-302 (domain or fragment)
  stoichiometry N: 3

Source: PMC4923907
